Tests used:
c-Src SH2 = test: SH2 binding enrichment of the phosphorylated peptide, bacterial display (enrichment ratio); higher = better substrate or ligand; peptides without Tyr show the background
Grb2 SH2 = Grb2 SH2 (UniProt P62993); test: as above
SHP2-C SH2 = test: as above
c-Abl (mouse) = test: phosphorylation enrichment, bacterial display (enrichment ratio); higher = better substrate or ligand; peptides without Tyr show the background
Jak2 = Jak2 (UniProt O60674); test: as above
AncSZ = test: as above
Fes = Fes (UniProt P07332); test: as above
Sequence of Fes (P07332 whole entry, looked up): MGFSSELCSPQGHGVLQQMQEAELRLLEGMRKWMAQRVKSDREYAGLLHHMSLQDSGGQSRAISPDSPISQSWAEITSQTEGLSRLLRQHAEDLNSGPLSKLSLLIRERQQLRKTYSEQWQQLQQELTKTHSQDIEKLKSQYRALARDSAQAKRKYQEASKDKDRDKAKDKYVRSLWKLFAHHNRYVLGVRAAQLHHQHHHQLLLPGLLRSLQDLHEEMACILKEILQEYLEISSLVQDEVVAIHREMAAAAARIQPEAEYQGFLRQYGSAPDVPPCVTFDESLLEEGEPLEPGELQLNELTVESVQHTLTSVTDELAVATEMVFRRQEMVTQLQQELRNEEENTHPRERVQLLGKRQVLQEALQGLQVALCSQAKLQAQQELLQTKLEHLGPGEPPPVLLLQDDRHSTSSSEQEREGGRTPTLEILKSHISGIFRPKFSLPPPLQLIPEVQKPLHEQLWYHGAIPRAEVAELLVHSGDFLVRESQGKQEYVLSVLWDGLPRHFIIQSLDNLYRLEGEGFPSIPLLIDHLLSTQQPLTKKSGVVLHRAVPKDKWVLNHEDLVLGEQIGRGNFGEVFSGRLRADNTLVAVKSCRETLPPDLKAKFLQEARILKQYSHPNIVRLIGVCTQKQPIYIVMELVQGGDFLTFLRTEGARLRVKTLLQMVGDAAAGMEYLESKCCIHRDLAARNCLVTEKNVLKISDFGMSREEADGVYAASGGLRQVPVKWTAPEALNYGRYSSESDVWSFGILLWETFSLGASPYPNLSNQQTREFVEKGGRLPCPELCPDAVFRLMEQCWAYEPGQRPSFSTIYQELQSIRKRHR

Fyn = Fyn (UniProt P06241); test: as above
Sequence of Fyn (P06241 whole entry, looked up): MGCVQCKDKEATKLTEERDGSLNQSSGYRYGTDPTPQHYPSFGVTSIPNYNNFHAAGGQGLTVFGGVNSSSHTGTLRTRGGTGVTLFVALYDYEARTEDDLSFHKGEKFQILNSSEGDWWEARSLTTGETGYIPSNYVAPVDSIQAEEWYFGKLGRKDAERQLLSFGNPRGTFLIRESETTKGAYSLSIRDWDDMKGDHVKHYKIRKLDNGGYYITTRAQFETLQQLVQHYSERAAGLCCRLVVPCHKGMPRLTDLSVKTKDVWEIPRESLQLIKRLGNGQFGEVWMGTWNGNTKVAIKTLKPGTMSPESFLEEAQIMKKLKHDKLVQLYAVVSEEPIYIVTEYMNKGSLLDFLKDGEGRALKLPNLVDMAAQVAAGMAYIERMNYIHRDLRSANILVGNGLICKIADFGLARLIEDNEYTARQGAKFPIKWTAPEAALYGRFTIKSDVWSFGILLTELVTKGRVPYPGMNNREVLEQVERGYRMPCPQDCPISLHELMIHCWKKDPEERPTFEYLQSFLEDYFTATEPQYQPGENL

EPHB2 = EPHB2 (UniProt P29323); test: as above
FGFR1 = FGFR1 (UniProt P11362); test: as above
Sequence of FGFR1 (P11362 whole entry, looked up): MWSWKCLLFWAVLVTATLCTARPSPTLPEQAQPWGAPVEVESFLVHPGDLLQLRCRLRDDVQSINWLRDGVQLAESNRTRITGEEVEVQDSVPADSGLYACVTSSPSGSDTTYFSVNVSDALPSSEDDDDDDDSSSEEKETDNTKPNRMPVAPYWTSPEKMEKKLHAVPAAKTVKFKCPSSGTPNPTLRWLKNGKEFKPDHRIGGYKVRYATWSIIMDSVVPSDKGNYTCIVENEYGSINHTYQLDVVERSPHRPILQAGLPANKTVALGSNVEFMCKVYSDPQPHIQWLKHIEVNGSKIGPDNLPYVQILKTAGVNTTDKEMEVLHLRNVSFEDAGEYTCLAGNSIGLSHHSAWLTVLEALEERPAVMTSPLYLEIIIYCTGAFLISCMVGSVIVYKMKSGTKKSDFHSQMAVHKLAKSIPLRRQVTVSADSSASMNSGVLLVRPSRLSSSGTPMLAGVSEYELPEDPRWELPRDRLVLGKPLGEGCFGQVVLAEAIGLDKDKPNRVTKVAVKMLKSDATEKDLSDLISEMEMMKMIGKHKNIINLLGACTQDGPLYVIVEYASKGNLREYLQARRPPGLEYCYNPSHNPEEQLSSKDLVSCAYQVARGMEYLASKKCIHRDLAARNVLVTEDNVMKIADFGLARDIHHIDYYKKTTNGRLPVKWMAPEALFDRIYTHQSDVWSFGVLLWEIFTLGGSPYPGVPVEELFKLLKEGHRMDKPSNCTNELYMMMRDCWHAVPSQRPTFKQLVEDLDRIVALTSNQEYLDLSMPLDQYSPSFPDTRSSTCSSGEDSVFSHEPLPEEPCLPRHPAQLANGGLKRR

EPHB1 = EPHB1 (UniProt P54762); test: as above
Fer (mouse) = test: as above
Hck = Hck (UniProt P08631); test: as above
Sequence of Hck (P08631 whole entry, looked up): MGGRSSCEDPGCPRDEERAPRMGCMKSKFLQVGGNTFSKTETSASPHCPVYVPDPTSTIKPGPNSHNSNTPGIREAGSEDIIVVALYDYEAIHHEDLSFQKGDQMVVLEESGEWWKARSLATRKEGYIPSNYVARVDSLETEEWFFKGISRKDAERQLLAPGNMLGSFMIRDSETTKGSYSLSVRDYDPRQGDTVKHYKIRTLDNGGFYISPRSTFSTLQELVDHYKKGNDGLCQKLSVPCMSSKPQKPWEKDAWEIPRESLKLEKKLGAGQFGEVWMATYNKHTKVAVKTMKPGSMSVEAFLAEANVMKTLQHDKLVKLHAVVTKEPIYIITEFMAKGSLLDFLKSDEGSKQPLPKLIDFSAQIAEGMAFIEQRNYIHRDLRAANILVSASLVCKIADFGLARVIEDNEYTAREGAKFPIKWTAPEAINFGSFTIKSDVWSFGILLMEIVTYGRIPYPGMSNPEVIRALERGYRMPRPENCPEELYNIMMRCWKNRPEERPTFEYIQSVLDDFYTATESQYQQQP

c-Src = test: as above
MERTK = MERTK (UniProt Q12866); test: as above
FGFR3 = FGFR3 (UniProt P22607); test: as above
Sequence of FGFR3 (P22607 whole entry, looked up, the tested form may be a part): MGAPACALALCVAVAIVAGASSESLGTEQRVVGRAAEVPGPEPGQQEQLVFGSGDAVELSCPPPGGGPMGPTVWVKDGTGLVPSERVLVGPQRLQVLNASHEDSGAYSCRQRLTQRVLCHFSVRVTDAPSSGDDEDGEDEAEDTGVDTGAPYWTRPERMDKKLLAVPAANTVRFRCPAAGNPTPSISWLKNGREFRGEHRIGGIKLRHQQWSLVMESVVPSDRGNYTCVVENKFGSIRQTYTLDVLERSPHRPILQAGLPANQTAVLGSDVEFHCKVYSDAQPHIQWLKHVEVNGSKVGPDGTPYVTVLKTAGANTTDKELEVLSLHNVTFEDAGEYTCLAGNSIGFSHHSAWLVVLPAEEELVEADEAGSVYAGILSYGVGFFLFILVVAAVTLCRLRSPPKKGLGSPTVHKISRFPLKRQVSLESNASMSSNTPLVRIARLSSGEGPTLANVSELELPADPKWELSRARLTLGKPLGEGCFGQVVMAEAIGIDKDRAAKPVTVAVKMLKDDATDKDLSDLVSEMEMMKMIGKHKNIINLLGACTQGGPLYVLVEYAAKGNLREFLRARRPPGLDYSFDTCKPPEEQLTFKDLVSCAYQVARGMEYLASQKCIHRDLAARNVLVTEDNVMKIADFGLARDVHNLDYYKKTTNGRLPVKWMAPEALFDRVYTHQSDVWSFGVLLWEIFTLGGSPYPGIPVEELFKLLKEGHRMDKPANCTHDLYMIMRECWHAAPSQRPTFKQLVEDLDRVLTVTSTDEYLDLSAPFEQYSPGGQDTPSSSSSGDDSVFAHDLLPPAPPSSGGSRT
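Throughout, for SH2 binding enrichment of the phosphorylated peptide, bacterial display: peptide library displayed on the E. coli surface as eCPX fusions, selected cells deep-sequenced, score is each peptide's frequency after selection divided by its frequency in the input.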
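Throughout, for phosphorylation enrichment, bacterial display: 11-residue human phosphosite peptides and single-mutation variants displayed on the E. coli surface, counted by deep sequencing, each peptide's frequency after selection divided by its frequency in the unselected input library; frequency after pTyr selection over input frequency; kinase dosed for 20-30% of maximal phosphorylation in three min.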

Sequence of Jak2 (O60674 whole entry, looked up): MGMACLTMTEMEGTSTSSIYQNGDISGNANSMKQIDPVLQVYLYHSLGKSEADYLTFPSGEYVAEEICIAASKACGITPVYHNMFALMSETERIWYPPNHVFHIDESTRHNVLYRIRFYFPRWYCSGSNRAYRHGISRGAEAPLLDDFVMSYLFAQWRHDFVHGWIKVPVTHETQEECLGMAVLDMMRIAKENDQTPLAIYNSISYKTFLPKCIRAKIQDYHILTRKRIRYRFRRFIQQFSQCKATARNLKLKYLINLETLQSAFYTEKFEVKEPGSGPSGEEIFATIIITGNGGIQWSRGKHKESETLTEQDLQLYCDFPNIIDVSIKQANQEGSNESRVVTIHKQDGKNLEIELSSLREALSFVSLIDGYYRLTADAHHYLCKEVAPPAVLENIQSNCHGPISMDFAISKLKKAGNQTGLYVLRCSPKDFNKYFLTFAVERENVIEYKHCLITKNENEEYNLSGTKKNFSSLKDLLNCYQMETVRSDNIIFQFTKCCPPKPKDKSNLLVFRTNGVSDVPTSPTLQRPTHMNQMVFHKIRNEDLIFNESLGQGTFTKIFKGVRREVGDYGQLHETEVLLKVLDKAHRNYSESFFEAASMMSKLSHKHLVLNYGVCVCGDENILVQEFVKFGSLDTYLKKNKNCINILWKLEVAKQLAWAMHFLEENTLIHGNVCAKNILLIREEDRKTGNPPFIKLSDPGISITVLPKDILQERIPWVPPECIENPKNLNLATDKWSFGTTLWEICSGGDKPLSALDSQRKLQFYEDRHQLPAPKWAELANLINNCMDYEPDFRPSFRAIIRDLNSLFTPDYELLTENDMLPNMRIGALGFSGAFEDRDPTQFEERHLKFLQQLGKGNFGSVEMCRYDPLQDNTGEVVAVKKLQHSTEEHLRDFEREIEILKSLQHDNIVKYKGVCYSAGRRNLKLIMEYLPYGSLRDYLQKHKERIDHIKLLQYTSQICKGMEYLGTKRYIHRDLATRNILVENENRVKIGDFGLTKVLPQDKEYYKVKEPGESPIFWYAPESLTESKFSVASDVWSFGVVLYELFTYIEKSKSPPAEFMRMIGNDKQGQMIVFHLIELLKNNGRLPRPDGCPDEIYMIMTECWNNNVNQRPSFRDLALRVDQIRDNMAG

| Sequence | SH2 binding enrichment (c-Src SH2) | SH2 binding enrichment (Grb2 SH2) | SH2 binding enrichment (SHP2-C SH2) | phosphorylation enrichment (c-Abl (mouse)) | phosphorylation enrichment (Jak2) | phosphorylation enrichment (AncSZ) | phosphorylation enrichment (Fes) | phosphorylation enrichment (Fyn) | phosphorylation enrichment (EPHB2) | phosphorylation enrichment (FGFR1) | phosphorylation enrichment (EPHB1) | phosphorylation enrichment (Fer (mouse)) | phosphorylation enrichment (Hck) | phosphorylation enrichment (c-Src) | phosphorylation enrichment (MERTK) | phosphorylation enrichment (FGFR3) |
| --- | --- | --- | --- | --- | --- | --- | --- | --- | --- | --- | --- | --- | --- | --- | --- | --- |
| CEAMEYQESKQ [BTK_Y511_L512Q] | 0.437 | 0.843 | 0.557 | 0.765 | 1.19 | 1.57 | 1.48 | 0.63 | 0.557 | 0.723 | 0.76 | 0.609 | 0.705 | 0.629 | 0.589 | 1.08 |
| RQRTAYFSLDT [CDH1_Y68] | 1.74 | 0.928 | 11.3 | 0.752 | 0.691 | 0.669 | 0.767 | 0.38 | 0.293 | 0.586 | 0.426 | 0.414 | 0.357 | 0.533 | 0.535 | 0.504 |
| VKMLEYRGKDV [CASP5_Y74_L75R] | 0.386 | 0.618 | 0.628 | 0.523 | 0.792 | 0.68 | 0.737 | 0.476 | 0.416 | 0.489 | 0.459 | 0.495 | 0.46 | 0.465 | 0.443 | 0.473 |
| QLYGAYLRIHA [BSCL2_Y213] | 1.13 | 1.27 | 1.35 | 0.915 | 1.2 | 1.95 | 1.68 | 7.21 | 1.3 | 1.02 | 1 | 0.536 | 4.32 | 3.58 | 0.905 | 1.12 |
| IHFAIYFLKFS [ARMC9_Y107_L108F_YF] | 1.12 | 1.93 | 1.86 | 0.636 | 0.636 | 0.835 | 0.956 | 0.448 | 0.576 | 0.441 | 0.473 | 0.485 | 0.561 | 0.434 | 0.406 | 0.674 |
| NKPTVYGVSPN [ABL1_Y226] | 0.501 | 0.899 | 0.523 | 0.67 | 0.478 | 0.547 | 0.623 | 0.55 | 0.373 | 0.376 | 0.399 | 0.443 | 0.603 | 0.659 | 0.395 | 0.446 |
| KHASTYREAAT [DEAF1_Y483] | 0.625 | 0.874 | 0.755 | 0.52 | 0.356 | 0.425 | 0.518 | 0.322 | 0.324 | 0.339 | 0.328 | 0.363 | 0.344 | 0.307 | 0.359 | 0.39 |
| QNKEDYDGLKE [GSTO1_Y139_A140D] | 0.765 | 1.09 | 0.737 | 1.19 | 1.13 | 1.83 | 1.74 | 0.943 | 1.04 | 0.867 | 1.02 | 0.754 | 0.915 | 0.641 | 0.666 | 1.3 |
| SNNYIYTTLGV [FAM83B_Y639_K640T] | 0.725 | 0.883 | 2.71 | 2.88 | 1.28 | 1.07 | 1.1 | 8.37 | 4.29 | 6.21 | 7.5 | 6.62 | 7.83 | 5.7 | 8.17 | 4.56 |
| INNIDYYKKTT [FGFR2_Y656] | 0.415 | 0.743 | 0.364 | 0.627 | 0.618 | 0.808 | 0.876 | 0.425 | 0.506 | 0.524 | 0.461 | 0.334 | 0.486 | 0.426 | 0.501 | 0.473 |
| KGERGYPGTPG [COL4A1_Y348] | 0.482 | 0.832 | 0.77 | 0.42 | 0.359 | 0.384 | 0.433 | 0.311 | 0.372 | 0.354 | 0.336 | 0.399 | 0.38 | 0.419 | 0.356 | 0.406 |
| QNKEDYAGLKE [GSTO1_Y139] | 0.803 | 0.69 | 0.902 | 1.37 | 1.24 | 1.34 | 1.6 | 0.919 | 1.29 | 0.893 | 0.494 | 2.22 | 0.82 | 1.01 | 1.09 | 1.73 |
| NDHHVYLEGTL [ALDOB_Y223] | 1.72 | 0.995 | 0.646 | 0.555 | 0.662 | 0.718 | 0.756 | 0.468 | 0.509 | 0.494 | 0.494 | 0.46 | 0.53 | 0.421 | 0.435 | 0.578 |

Now from value to sequence, other results behind:

| SH2 binding enrichment (c-Src SH2) | SH2 binding enrichment (Grb2 SH2) | SH2 binding enrichment (SHP2-C SH2) | Sequence | phosphorylation enrichment (c-Abl (mouse)) | phosphorylation enrichment (Jak2) | phosphorylation enrichment (AncSZ) | phosphorylation enrichment (Fes) | phosphorylation enrichment (Fyn) | phosphorylation enrichment (EPHB2) | phosphorylation enrichment (FGFR1) | phosphorylation enrichment (EPHB1) | phosphorylation enrichment (Fer (mouse)) | phosphorylation enrichment (Hck) | phosphorylation enrichment (c-Src) | phosphorylation enrichment (MERTK) | phosphorylation enrichment (FGFR3) |
| --- | --- | --- | --- | --- | --- | --- | --- | --- | --- | --- | --- | --- | --- | --- | --- | --- |
| 0.476 | 0.674 | 0.679 | LAIERYVVVCK [RHO_Y136] | 1.51 | 1.9 | 1.83 | 2.33 | 0.597 | 1.09 | 0.766 | 0.938 | 1.32 | 0.862 | 0.859 | 0.732 | 1.21 |
| 2.64 | 1.05 | 40.4 | TNLVPYTRIHF [TUBA1A_Y262_P263T] | 0.469 | 0.682 | 0.765 | 0.829 | 0.45 | 0.423 | 0.468 | 0.455 | 0.385 | 0.487 | 0.441 | 0.374 | 0.506 |
| 0.472 | 0.867 | 0.621 | GREEFYVHFVG [KAT8_Y90_YF] | 0.896 | 1.37 | 1.23 | 1.52 | 0.458 | 0.602 | 0.582 | 0.661 | 0.513 | 0.581 | 0.693 | 0.559 | 0.841 |
| 0.604 | 0.688 | 0.516 | NREGVYTVFAP [TGFBI_Y537] | 1.57 | 0.862 | 1.54 | 1.11 | 13.3 | 2.04 | 0.885 | 2.35 | 8.74 | 10 | 8.95 | 11.4 | 1.07 |
| 0.487 | 0.803 | 0.635 | ERIELYELDKK [PMM2_Y145_F144L] | 0.641 | 0.887 | 1.18 | 1.1 | 0.586 | 0.589 | 0.481 | 0.664 | 0.506 | 0.574 | 0.615 | 0.568 | 0.673 |
| 0.419 | 0.883 | 1.55 | ADDSFYTARSA [ZAP70_Y493_YF] | 0.561 | 0.877 | 0.822 | 0.993 | 0.711 | 0.534 | 0.55 | 0.597 | 0.451 | 1.01 | 0.707 | 0.681 | 0.904 |
| 0.984 | 1.2 | 1.17 | CQAHGYFCQLI [STK11_Y156] | 0.514 | 0.751 | 0.873 | 0.836 | 0.405 | 0.546 | 0.479 | 0.413 | 0.402 | 0.436 | 0.428 | 0.407 | 0.609 |
| 0.858 | 1.23 | 0.808 | KKYPDYIQIAR [SGMS2_Y59_M64R] | 0.702 | 1.28 | 0.98 | 0.984 | 0.367 | 1.22 | 3.97 | 7.96 | 0.388 | 0.48 | 0.47 | 0.392 | 2.55 |
| 0.417 | 0.901 | 0.696 | EASEQYLTKAS [NRCAM_Y739] | 0.798 | 0.793 | 0.711 | 0.802 | 0.496 | 0.425 | 0.571 | 0.424 | 0.463 | 0.43 | 0.458 | 0.485 | 0.556 |
| 1.61 | 1.5 | 2.1 | RNVYYYSYLLK [PTEN_Y178_Y174N] | 9.24 | 8.72 | 3.58 | 2.56 | 3.94 | 5.19 | 9.89 | 8.15 | 1.59 | 5.15 | 7.3 | 11.5 | 8.38 |
| 1.03 | 0.983 | 0.956 | PVQDAYQKVVA [HBB_Y131_A129D] | 0.421 | 0.425 | 0.526 | 0.453 | 0.366 | 0.308 | 0.397 | 0.445 | 0.493 | 0.353 | 0.386 | 0.379 | 0.429 |
| 0.693 | 0.935 | 0.712 | AATTAYSKPKR [MAP3K7_Y405] | 0.509 | 0.425 | 0.404 | 0.563 | 0.281 | 0.264 | 0.337 | 0.275 | 0.317 | 0.384 | 0.354 | 0.302 | 0.37 |
| 0.694 | 1.05 | 0.792 | KNNDGNIDYAE [MCFD2_Y135_Y135N] | 0.62 | 0.776 | 1.13 | 1.13 | 0.462 | 0.53 | 0.501 | 0.572 | 0.453 | 0.524 | 0.388 | 0.479 | 0.916 |
| 0.451 | 0.734 | 0.635 | GLNKDYRMVVN [HINT1_Y94_G93D] | 0.447 | 0.566 | 0.652 | 0.605 | 0.455 | 0.44 | 0.51 | 0.426 | 0.448 | 0.437 | 0.415 | 0.424 | 0.504 |
| 3.31 | 1.74 | 1.85 | CTTIHYNFMCD [TP53_Y234_N239D_YF] | 0.768 | 1.03 | 0.985 | 1.11 | 0.442 | 0.499 | 0.399 | 0.545 | 0.49 | 0.481 | 0.538 | 0.424 | 0.674 |
| 0.489 | 0.964 | 0.533 | RRGTRYMSSRP [RPL21_Y13_F15S] | 0.527 | 0.699 | 0.439 | 0.473 | 0.772 | 0.499 | 0.551 | 0.481 | 0.578 | 0.621 | 0.947 | 0.57 | 0.633 |

— the supplement of paper PMC10065799, “High-throughput profiling of sequence recognition by tyrosine kinases and SH2 domains using bacterial peptide display” (eLife, 2023)
